In PMC4391263, “Alpers disease mutations in human DNA polymerase gamma cause catalytic defects in mitochondrial DNA replication by distinct mechanisms”:

B1: 25-mer/45-mer primer-template (dsDNA)
DNA 1: GCCTCGCAGCCGTCCAACCAACTCA
DNA 2: GGACGGCATTGGATCGAGGTTGAGTTGGTTGGACGGCTGCGAGGC
B2: 25-mer/73-mer primer-template (dsDNA)
DNA 1: GCCTCGCAGCCGTCCAACCAACTCA
DNA 2: CCCCACCTGCAGGCATGCAAGCTTGGCACTGGCCGTCGTTTTACCTCTTGAGTTGGTTGGACGGCTGCGAGGC

Key:
[1] = target: T1, Pol-γA P1073L (exo+);Pol-γB accessory subunit (Homo sapiens;Homo sapiens, UniProt P54098;Q9UHN1 26-1239;26-485, P1073L|); assay: pre-steady-state single-nucleotide incorporation kinetics; 12.5 mM Mg2+, dATP; 12.5 mM Mg2+, 37 °C; enzyme and DNA preincubated, rapid quench flow; buffer, salt and pH not given in the material. Table 1 WT Kd (9.9 ± 2.1 nM) is asterisked as apparently earlier data and not listed; details: protein: recombinant;recombinant; tags: ;; copies: 1;2; label: 5'-32P primer; 5' overhang 20 nt on template, recessed primer 3' end
[2] = target: T1, Pol-γA P1073L (exo+);Pol-γB accessory …; assay: global fit of processive polymerization time course; 12.5 mM MgCl2; dATP, dCTP, TTP 5 μM each; 12.5 mM Mg2+, 37 °C; enzyme and DNA preincubated, rapid quench flow; buffer, salt and pH not given in the material. Table 1 WT Kd (9.9 ± 2.1 nM) is asterisked as apparently earlier data and not listed; details: protein: recombinant;recombinant; tags: ;; copies: 1;2; label: 5'-32P primer; 5' overhang 20 nt on template, recessed primer 3' end
[3] = target: Pol-γA S305R (exo+);Pol-γB accessory subunit (Homo sapiens;Homo sapiens, UniProt P54098;Q9UHN1 26-1239;26-485, S305R|); assay: global fit of pre-steady-state single-nucleotide incorporation kinetics (quench flow, DNA titration); 12.5 mM Mg2+, dATP; 12.5 mM Mg2+, 37 °C; enzyme and DNA preincubated, rapid quench flow; buffer, salt and pH not given in the material. Table 1 WT Kd (9.9 ± 2.1 nM) is asterisked as apparently earlier data and not listed; details: protein: recombinant;recombinant; tags: ;; copies: 1;2; label: 5'-32P primer; 5' overhang 20 nt on template, recessed primer 3' end
[4] = target: Pol-γA wild-type (exo+);Pol-γB accessory subunit (Homo sapiens;Homo sapiens, UniProt P54098;Q9UHN1 26-1239;26-485, |); assay: global fit of processive polymerization time course; 12.5 mM MgCl2; dATP, dGTP, TTP 5 μM each; 12.5 mM Mg2+, 37 °C; enzyme and DNA preincubated, rapid quench flow; buffer, salt and pH not given in the material. Table 1 WT Kd (9.9 ± 2.1 nM) is asterisked as apparently earlier data and not listed; details: protein: recombinant;recombinant; tags: ;; copies: 1;2; 5' overhang 48 nt on template, recessed primer 3' end
Sequence of Pol-γA wild-type (exo+);Pol-γB accessory subunit (P54098 26-1239, chain 1 of 2): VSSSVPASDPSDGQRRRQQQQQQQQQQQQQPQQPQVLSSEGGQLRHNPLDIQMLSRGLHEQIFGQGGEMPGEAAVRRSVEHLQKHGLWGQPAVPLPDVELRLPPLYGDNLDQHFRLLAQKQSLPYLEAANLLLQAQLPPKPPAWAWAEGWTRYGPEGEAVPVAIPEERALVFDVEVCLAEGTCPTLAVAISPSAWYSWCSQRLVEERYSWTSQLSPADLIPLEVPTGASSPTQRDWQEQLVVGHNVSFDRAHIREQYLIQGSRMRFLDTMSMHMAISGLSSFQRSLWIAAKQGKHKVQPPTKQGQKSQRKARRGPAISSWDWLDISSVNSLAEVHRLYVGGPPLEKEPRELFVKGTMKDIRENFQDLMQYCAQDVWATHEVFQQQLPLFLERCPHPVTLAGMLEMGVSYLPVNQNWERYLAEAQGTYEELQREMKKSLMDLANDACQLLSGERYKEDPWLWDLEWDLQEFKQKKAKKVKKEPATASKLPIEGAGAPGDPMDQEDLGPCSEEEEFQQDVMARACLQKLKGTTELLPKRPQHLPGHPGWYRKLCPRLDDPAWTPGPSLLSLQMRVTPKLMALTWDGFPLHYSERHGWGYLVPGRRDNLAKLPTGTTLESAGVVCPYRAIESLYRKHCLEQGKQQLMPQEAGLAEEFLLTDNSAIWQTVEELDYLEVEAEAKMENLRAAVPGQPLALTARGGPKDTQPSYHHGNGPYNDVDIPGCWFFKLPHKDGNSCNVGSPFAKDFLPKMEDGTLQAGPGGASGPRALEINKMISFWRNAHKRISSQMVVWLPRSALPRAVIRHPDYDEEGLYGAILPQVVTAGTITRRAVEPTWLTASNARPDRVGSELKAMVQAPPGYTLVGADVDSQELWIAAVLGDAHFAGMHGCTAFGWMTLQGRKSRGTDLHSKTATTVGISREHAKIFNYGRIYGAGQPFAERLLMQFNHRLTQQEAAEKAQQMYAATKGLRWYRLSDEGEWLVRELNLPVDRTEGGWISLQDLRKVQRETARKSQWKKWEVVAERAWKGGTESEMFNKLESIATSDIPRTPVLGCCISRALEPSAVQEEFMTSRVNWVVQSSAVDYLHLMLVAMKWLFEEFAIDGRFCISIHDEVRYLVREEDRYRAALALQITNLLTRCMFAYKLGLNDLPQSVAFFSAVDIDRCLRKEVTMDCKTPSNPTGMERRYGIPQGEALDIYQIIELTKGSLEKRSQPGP
Sequence of Pol-γA wild-type (exo+);Pol-γB accessory subunit (Q9UHN1 26-485, chain 2 of 2): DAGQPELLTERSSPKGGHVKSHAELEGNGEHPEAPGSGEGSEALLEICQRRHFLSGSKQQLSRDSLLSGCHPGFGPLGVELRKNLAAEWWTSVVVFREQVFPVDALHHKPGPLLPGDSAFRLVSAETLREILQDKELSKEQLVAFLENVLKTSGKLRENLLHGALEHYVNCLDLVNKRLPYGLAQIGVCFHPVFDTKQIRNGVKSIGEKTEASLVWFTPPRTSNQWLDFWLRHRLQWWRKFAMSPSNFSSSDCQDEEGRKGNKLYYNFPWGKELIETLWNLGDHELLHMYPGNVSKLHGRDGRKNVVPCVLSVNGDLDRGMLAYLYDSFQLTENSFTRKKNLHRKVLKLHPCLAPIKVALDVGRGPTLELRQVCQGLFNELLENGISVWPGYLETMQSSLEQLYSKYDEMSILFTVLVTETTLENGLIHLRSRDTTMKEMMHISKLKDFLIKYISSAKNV

T1 sequence (P54098 26-1239 P1073L, chain 1 of 2): as the sequence (P54098 26-1239, chain 1 of 2) above, with P1048L counted along it
T1 sequence (Q9UHN1 26-485, chain 2 of 2): as the sequence (Q9UHN1 26-485, chain 2 of 2) above
Sequence of Pol-γA S305R (exo+);Pol-γB accessory subunit (P54098 26-1239 S305R, chain 1 of 2): as the sequence (P54098 26-1239, chain 1 of 2) above, with S280R counted along it
Sequence of Pol-γA S305R (exo+);Pol-γB accessory subunit (Q9UHN1 26-485, chain 2 of 2): as the sequence (Q9UHN1 26-485, chain 2 of 2) above

Binder | Kd [1] | Kd [2] | Kd [3] | Kd [4]
B1 | 10.2 ± 1.2 nM | 15 nM | 100 ± 4 nM | 
B2 |  |  |  | 15 nM
